Data on nine molecules can be found in patent US20160200791A1 (Novo Nordisk, published 2016).

Numbered stars: 1 amine (or outer) side, 2 acyl side, 3 side chain; on linkers, the order of the positions; unused ones are H or OH. Square brackets hold non-standard residues; d marks the D form. Side chains are listed from the residue outwards. Ends that are not written are not given here. * marks the point of attachment. Hexadecanoyl(16-SO3H) = O=C(CCCCCCCCCCCCCCCS(=O)(=O)O)*; C18 diacid = O=C(O)CCCCCCCCCCCCCCCCC(=O)*; γGlu = O=C(O)[C@H](CCC(=O)[*:2])N[*:1]; εLys = N[C@@H](CCCCN[*:1])C(=O)[*:2]; Cya = N[C@@H](CS(=O)(=O)O)C(=O)O; Trx = NC[C@H]1CC[C@H](C(=O)O)CC1; AEEA = NCCOCCOCC(=O)O; Aib = CC(C)(N)C(=O)O; Ahx = NCCCCCC(=O)O; GABA = NCCCC(=O)O

B1: GLP-1 derivative of Example 6: N{Epsilon-18}, N{Epsilon-27}, N{Epsilon-37}-triacylated [Aib8,Lys18,Glu22,Arg26,Lys27,Arg34,Lys37]-GLP-1-(7-37)-peptide (peptide)
peptide: H[Aib]EGTFTSDVSK([εLys-AEEA-AEEA-γGlu-C18 diacid])YLEEQAARK([εLys-AEEA-AEEA-γGlu-C18 diacid])FIAWLVRGRK([εLys-AEEA-AEEA-γGlu-C18 diacid])
notes: Full chemical name printed at h-0062 (it prints 'Lys8' where Lys18 is meant)

The first assay addresses T1, human GLP-1 receptor (human, UniProt P43220 24-463). The assay is described as follows: cell-based or functional assay.
On to H[Aib]EGTFTSDVSK([AEEA-AEEA-AEEA-AEEA-AEEA-εLys-εLys-Ahx-Hexadecanoyl(16-SO3H)])YLEK([AEEA-AEEA-AEEA-AEEA-AEEA-εLys-εLys-Ahx-Hexadecanoyl(16-SO3H)])QAAREFIK([AEEA-AEEA-AEEA-AEEA-AEEA-εLys-εLys-Ahx-Hexadecanoyl(16-SO3H)])WLVRGRG (Full chemical name printed at h-0090), for which the “In vitro potency EC50 (CRE luciferase reporter gene assay, BHK cells)” value (“In vitro potency EC50” below) worked out at 0.027 nM.
For B1, the “In vitro potency EC50” value is 0.012 nM.
Still for that read-out and setting: next, H[Aib]EGTFTSDVSK([AEEA-AEEA-AEEA-AEEA-AEEA-εLys-εLys-GABA-Hexadecanoyl(16-SO3H)])YLEK([AEEA-AEEA-AEEA-AEEA-AEEA-εLys-εLys-GABA-Hexadecanoyl(16-SO3H)])QAAREFIK([AEEA-AEEA-AEEA-AEEA-AEEA-εLys-εLys-GABA-Hexadecanoyl(16-SO3H)])WLVRGRG (Full chemical name printed at h-0092): 0.015 nM.
Consider H[Aib]EGTFTSDVSK([AEEA-AEEA-εLys-εLys-Hexadecanoyl(16-SO3H)])YLEK([AEEA-AEEA-εLys-εLys-Hexadecanoyl(16-SO3H)])QAAREFIK([AEEA-AEEA-εLys-εLys-Hexadecanoyl(16-SO3H)])WLVRGRG (Full chemical name printed at h-0078), for which the “In vitro potency EC50” value turned out to be 0.018 nM.
For the molecule H[Aib]EGTFTSDVSK([AEEA-AEEA-AEEA-AEEA-AEEA-εLys-εLys-εLys-C18 diacid])YLEK([AEEA-AEEA-AEEA-AEEA-AEEA-εLys-εLys-εLys-C18 diacid])QAAREFIK([AEEA-AEEA-AEEA-AEEA-AEEA-εLys-εLys-εLys-C18 diacid])WLVRGRG (Full chemical name printed at h-0084), the “In vitro potency EC50” value worked out at 0.018 nM.
Take H[Aib]EGTFTSDVSK([AEEA-AEEA-γGlu-Trx-Hexadecanoyl(16-SO3H)])YLEK([AEEA-AEEA-γGlu-Trx-Hexadecanoyl(16-SO3H)])QAAREFIK([AEEA-AEEA-γGlu-Trx-Hexadecanoyl(16-SO3H)])WLVRGRG (Full chemical name printed at h-0052): the “In vitro potency EC50” value worked out at 0.067 nM.
In the case of H[Aib]EGTFTSDVSK([AEEA-AEEA-AEEA-AEEA-εLys-εLys-GABA-Hexadecanoyl(16-SO3H)])YLEK([AEEA-AEEA-AEEA-AEEA-εLys-εLys-GABA-Hexadecanoyl(16-SO3H)])QAAREFIK([AEEA-AEEA-AEEA-AEEA-εLys-εLys-GABA-Hexadecanoyl(16-SO3H)])WLVRGRG (Full chemical name printed at h-0086), the “In vitro potency EC50” value worked out at 0.116 nM.
As to H[Aib]EGTFTSDVSK([AEEA-AEEA-Cya-Hexadecanoyl(16-SO3H)])YLEK([AEEA-AEEA-Cya-Hexadecanoyl(16-SO3H)])QAAREFIK([AEEA-AEEA-Cya-Hexadecanoyl(16-SO3H)])WLVRGRG (Full chemical name printed at h-0054), the “In vitro potency EC50” value amounted to 0.02 nM.
Consider H[Aib]EGTFTSDVSK([AEEA-AEEA-AEEA-AEEA-AEEA-εLys-εLys-C18 diacid])YLEK([AEEA-AEEA-AEEA-AEEA-AEEA-εLys-εLys-C18 diacid])QAAREFIK([AEEA-AEEA-AEEA-AEEA-AEEA-εLys-εLys-C18 diacid])WLVRGRG (Full chemical name printed at h-0082), for which the “In vitro potency EC50” value came to 0.014 nM.

The next assay addresses T1, human GLP-1 receptor. The assay is described as follows: competitive SPA binding, displacement of 125I-GLP-1(7-36)NH2 from BHK membranes with human GLP-1R, high HSA (2.0%). (In general: Displacement assays read how much labelled ligand stays bound in the presence of the test substance.)
Experimental: (§1) For the receptor binding assay in the presence of low HSA (0.005%) 50 μl of the assay buffer was added to each well of an assay plate. Assay continued with step 3. […] For the receptor binding assay in the presence of high HSA (2%) 50 μl of the 8% albumin stock was added to each well of an assay plate. Assay continued with step 3. […] Cell membrane aliquots were thawed and diluted to their working concentration. Fifty μl were added to each well in the assay plate. […] WGA SPA beads were suspended in assay buffer at 20 mg/ml. The suspension was diluted to 10 mg/ml in assay buffer just prior to addition to the assay plate. Fifty μl were added to each well in the assay plate. […] A 25 μl aliquot was reserved for measuring total counts/well. […] The assay plate was incubated for 2 h at 30° C. […] The assay plate was centrifuged for 10 min. […] The assay plate was read in a Packard TopCount NXT instrument.
One may read the IC50 as the midpoint of a concentration-inhibition curve. For H[Aib]EGTFTSDVSK([AEEA-AEEA-AEEA-AEEA-AEEA-εLys-εLys-Ahx-Hexadecanoyl(16-SO3H)])YLEK([AEEA-AEEA-AEEA-AEEA-AEEA-εLys-εLys-Ahx-Hexadecanoyl(16-SO3H)])QAAREFIK([AEEA-AEEA-AEEA-AEEA-AEEA-εLys-εLys-Ahx-Hexadecanoyl(16-SO3H)])WLVRGRG (Full chemical name printed at h-0090), the half-maximal inhibitory concentration (IC50) turned out to be 100 nM.
In turn, B1 came in with an IC50 above 1000 nM.
On to H[Aib]EGTFTSDVSK([AEEA-AEEA-AEEA-AEEA-AEEA-εLys-εLys-GABA-Hexadecanoyl(16-SO3H)])YLEK([AEEA-AEEA-AEEA-AEEA-AEEA-εLys-εLys-GABA-Hexadecanoyl(16-SO3H)])QAAREFIK([AEEA-AEEA-AEEA-AEEA-AEEA-εLys-εLys-GABA-Hexadecanoyl(16-SO3H)])WLVRGRG (Full chemical name printed at h-0092), for which the IC50 stood at 96 nM.
Molecule H[Aib]EGTFTSDVSK([AEEA-AEEA-εLys-εLys-Hexadecanoyl(16-SO3H)])YLEK([AEEA-AEEA-εLys-εLys-Hexadecanoyl(16-SO3H)])QAAREFIK([AEEA-AEEA-εLys-εLys-Hexadecanoyl(16-SO3H)])WLVRGRG (Full chemical name printed at h-0078) registered an IC50 of 100 nM.
In the case of H[Aib]EGTFTSDVSK([AEEA-AEEA-AEEA-AEEA-AEEA-εLys-εLys-εLys-C18 diacid])YLEK([AEEA-AEEA-AEEA-AEEA-AEEA-εLys-εLys-εLys-C18 diacid])QAAREFIK([AEEA-AEEA-AEEA-AEEA-AEEA-εLys-εLys-εLys-C18 diacid])WLVRGRG (Full chemical name printed at h-0084), the half-maximal inhibitory concentration (IC50) came out at 143 nM.
Regarding H[Aib]EGTFTSDVSK([AEEA-AEEA-γGlu-Trx-Hexadecanoyl(16-SO3H)])YLEK([AEEA-AEEA-γGlu-Trx-Hexadecanoyl(16-SO3H)])QAAREFIK([AEEA-AEEA-γGlu-Trx-Hexadecanoyl(16-SO3H)])WLVRGRG (Full chemical name printed at h-0052), the IC50 turned out to be 289 nM.
The molecule H[Aib]EGTFTSDVSK([AEEA-AEEA-AEEA-AEEA-εLys-εLys-GABA-Hexadecanoyl(16-SO3H)])YLEK([AEEA-AEEA-AEEA-AEEA-εLys-εLys-GABA-Hexadecanoyl(16-SO3H)])QAAREFIK([AEEA-AEEA-AEEA-AEEA-εLys-εLys-GABA-Hexadecanoyl(16-SO3H)])WLVRGRG (Full chemical name printed at h-0086) had an IC50 of 19 nM.
H[Aib]EGTFTSDVSK([AEEA-AEEA-Cya-Hexadecanoyl(16-SO3H)])YLEK([AEEA-AEEA-Cya-Hexadecanoyl(16-SO3H)])QAAREFIK([AEEA-AEEA-Cya-Hexadecanoyl(16-SO3H)])WLVRGRG (Full chemical name printed at h-0054) returned a half-inhibitory concentration (IC50) of 290 nM.
Molecule H[Aib]EGTFTSDVSK([AEEA-AEEA-AEEA-AEEA-AEEA-εLys-εLys-C18 diacid])YLEK([AEEA-AEEA-AEEA-AEEA-AEEA-εLys-εLys-C18 diacid])QAAREFIK([AEEA-AEEA-AEEA-AEEA-AEEA-εLys-εLys-C18 diacid])WLVRGRG (Full chemical name printed at h-0082) yielded a concentration for half-maximal inhibition (IC50) of 381 nM.

Another assay deals with T1, human GLP-1 receptor. The assay is described as follows: competitive SPA binding, displacement of 125I-GLP-1(7-36)NH2 from BHK membranes with human GLP-1R, low HSA (max. 0.001%).
Experimental: as §1
H[Aib]EGTFTSDVSK([AEEA-AEEA-AEEA-AEEA-AEEA-εLys-εLys-Ahx-Hexadecanoyl(16-SO3H)])YLEK([AEEA-AEEA-AEEA-AEEA-AEEA-εLys-εLys-Ahx-Hexadecanoyl(16-SO3H)])QAAREFIK([AEEA-AEEA-AEEA-AEEA-AEEA-εLys-εLys-Ahx-Hexadecanoyl(16-SO3H)])WLVRGRG (Full chemical name printed at h-0090) displayed an IC50 of 0.36 nM.
On to B1, for which the concentration for half-maximal inhibition (IC50) was found to be 0.4 nM.
Turning to H[Aib]EGTFTSDVSK([AEEA-AEEA-AEEA-AEEA-AEEA-εLys-εLys-GABA-Hexadecanoyl(16-SO3H)])YLEK([AEEA-AEEA-AEEA-AEEA-AEEA-εLys-εLys-GABA-Hexadecanoyl(16-SO3H)])QAAREFIK([AEEA-AEEA-AEEA-AEEA-AEEA-εLys-εLys-GABA-Hexadecanoyl(16-SO3H)])WLVRGRG (Full chemical name printed at h-0092), the IC50 is 0.24 nM.
Consider H[Aib]EGTFTSDVSK([AEEA-AEEA-εLys-εLys-Hexadecanoyl(16-SO3H)])YLEK([AEEA-AEEA-εLys-εLys-Hexadecanoyl(16-SO3H)])QAAREFIK([AEEA-AEEA-εLys-εLys-Hexadecanoyl(16-SO3H)])WLVRGRG (Full chemical name printed at h-0078), for which the IC50 stood at 0.19 nM.
The same measure, in the same setting: next, H[Aib]EGTFTSDVSK([AEEA-AEEA-AEEA-AEEA-AEEA-εLys-εLys-εLys-C18 diacid])YLEK([AEEA-AEEA-AEEA-AEEA-AEEA-εLys-εLys-εLys-C18 diacid])QAAREFIK([AEEA-AEEA-AEEA-AEEA-AEEA-εLys-εLys-εLys-C18 diacid])WLVRGRG (Full chemical name printed at h-0084): 0.08 nM; H[Aib]EGTFTSDVSK([AEEA-AEEA-γGlu-Trx-Hexadecanoyl(16-SO3H)])YLEK([AEEA-AEEA-γGlu-Trx-Hexadecanoyl(16-SO3H)])QAAREFIK([AEEA-AEEA-γGlu-Trx-Hexadecanoyl(16-SO3H)])WLVRGRG (Full chemical name printed at h-0052): 2.3 nM; H[Aib]EGTFTSDVSK([AEEA-AEEA-AEEA-AEEA-εLys-εLys-GABA-Hexadecanoyl(16-SO3H)])YLEK([AEEA-AEEA-AEEA-AEEA-εLys-εLys-GABA-Hexadecanoyl(16-SO3H)])QAAREFIK([AEEA-AEEA-AEEA-AEEA-εLys-εLys-GABA-Hexadecanoyl(16-SO3H)])WLVRGRG (Full chemical name printed at h-0086): 0.1 nM.
The molecule H[Aib]EGTFTSDVSK([AEEA-AEEA-Cya-Hexadecanoyl(16-SO3H)])YLEK([AEEA-AEEA-Cya-Hexadecanoyl(16-SO3H)])QAAREFIK([AEEA-AEEA-Cya-Hexadecanoyl(16-SO3H)])WLVRGRG (Full chemical name printed at h-0054) yielded an IC50 of 1.4 nM.
As for H[Aib]EGTFTSDVSK([AEEA-AEEA-AEEA-AEEA-AEEA-εLys-εLys-C18 diacid])YLEK([AEEA-AEEA-AEEA-AEEA-AEEA-εLys-εLys-C18 diacid])QAAREFIK([AEEA-AEEA-AEEA-AEEA-AEEA-εLys-εLys-C18 diacid])WLVRGRG (Full chemical name printed at h-0082), the IC50 turned out to be 0.4 nM.
